Laboratory results: patent US6395526B1, “DNA polymerase” (Takara Shuzo Co., Ltd., priority 1995, dated 2002)
Entries after “also recorded” stand apart in the source; their conditions may differ.

Columns and labels:
[1] = system: substrate DNA (template-primer); assay: DNA polymerase activity on different forms of substrate DNA (template-primer); format: biochemical
Procedure: The DNA polymerase activity was assayed using calf thymus DNA (manufactured by Worthington) activated by DNase I treatment (activated DNA) as a substrate. DNA activation and assay of DNA polymerase activity were carried out by the method described in DNA Polymerase from Escherichia coli, 263-276 (authored by C. C. Richardson), published by Harper & Row, edited by D. R. Davis.
An assay of enzyme activity was carried out by the following method. Specifically, 50 μl of a reaction solution [20 mM Tris-HCl (pH 7.7), 15 mM MgCl2, 2 mM 2-mercaptoethanol, 0.2 mg/ml activated DNA, 40 μM each of dATP, dCTP, dGTP and dTTP, 60 nM [^3H]-dTTP (manufactured by Amersham)], containing a sample for assaying its activity, was prepared and reacted at 75° C. for 15 minutes. A 40 μl portion of this reaction mixture was then spotted onto a DE paper (manufactured by Whatman) and washed with 5% Na2HPO4 five times. The remaining radioactivity on the DE paper was assayed using a liquid scintillation counter. The amount of enzyme which incorporated 10 nmol of [^3H]-dTMP per 30 minutes into the substrate DNA, assayed by the above-described enzyme activity assay method, was defined as one unit of the enzyme.
Next, in order to compare the selectivity of the DNA polymerase of the present invention for different forms of substrate DNA, the following template-primer was examined. Aside from the activated DNA used for conventional assay of the activity, those prepared as substrates include a thermal-denatured DNA prepared by treating the activated DNA at 85° C. for 5 minutes; M13-HT Primer prepared by annealing a 45-base synthetic deoxyribooligonucleotide of the sequence as shown by SEQ ID NO:6 in Sequence Listing as a primer to the M13 phage single stranded DNA (M13mp18 ssDNA, manufactured by Takara Shuzo Co., Ltd.); M13-RNA Primer prepared by annealing a 17-base synthetic ribooligonucleotide of the sequence as shown by SEQ ID NO:7 in Sequence Listing as a primer to the same M13 phage single stranded DNA; Poly dA-Oligo dT prepared by mixing polydeoxyadenosine (Poly dA, manufactured by Pharmacia) and oligodeoxythymidine (Oligo dT, manufactured by Pharmacia) in a 20:1 molar ratio; and Poly A-Oligo dT prepared by mixing polyadenosine (Poly A, manufactured by Pharmacia) and oligodeoxythymidine in a 20:1 molar ratio.
The DNA polymerase activity was assayed using these substrates in place of the activated DNA. The relative activity of each substrate when the activity obtained in the case of using an activated DNA as a substrate is defined as 100 is shown in Table 1. For comparison, the Pfu DNA polymerase and the Taq DNA polymerase derived from Thermus aquaticus (TaKaRa Taq, manufactured by Takara Shuzo Co., Ltd.) were also examined in the same manner.

activated DNA [2] = assay: Optimum KCl and MgCl2 concentrations for DNA polymerase activity; format: biochemical, calf
Procedure: For a DNA polymerase preparation forming a complex of the translation products of ORF3 and ORF4 obtained in Example 3, namely the first DNA polymerase-constituting protein and the second DNA polymerase-constituting protein in a ratio at 1:1, optimum MgCl2 and KCl concentrations were firstly assayed. The DNA polymerase activity was assayed in a reaction system containing 20 mM Tris-HCl, pH 7.7, 2 mM 2-mercaptoethanol, 0.2 mg/ml activated DNA, and 40 μM each of dATP, dGTP, dCTP and dTTP in the presence of 2 mM MgCl2, while the KCl concentration was step by step increased from 0 to 200 mM KCl for each 20 mM increment. […] Next, the DNA polymerase activity was assayed in the same reaction system but in the presence of 60 mM KCl in this time, while the MgCl2 concentration was step by step increased from 0.5 to 25 mM MgCl2 for each 2.5 mM increment, to compare at each concentration.

activated DNA [3] = assay: Optimum pH and temperature of DNA polymerase activity; format: biochemical, calf; details: Tris-HCl in place of potassium phosphate; highest pH level used in the assay
Procedure: However, because the double stranded structure of the activated DNA used as a substrate for activity assay is destructed at higher temperatures, an accurate optimum temperature for the activity of the above enzyme has not been assayed. […] This level of the heat stability allows the use of the above enzyme for PCR method.
The optimum pH was then assayed. […], and preparing a reaction mixture comprising 20 mM potassium phosphate, 15 mM MgCl2, 2 mM 2-mercaptoethanol, 0.2 mg/ml activated DNA, 40 μM each of dATP, dCTP, dGTP and dTTP, and 60 nM [^3H]-dTTP. The results are shown in FIG. 3, wherein the abscissa indicates the pH, and the ordinate indicates the radioactivity incorporated in high-molecular DNA.

[4] = system: 32P-labeled DNA fragment from pUC119 vector; assay: Associated exonuclease activity; format: biochemical; details: 75° C.
Procedure: The exonuclease activity of the DNA polymerase of the present invention was assessed as follows: As a substrate for 5′→3′ exonuclease activity detection, a DNA fragment labeled with ^32P at the 5′-end was prepared by a process comprising digesting a pUC119 vector (manufactured by Takara Shuzo Co., Ltd.) with SspI (manufactured by Takara Shuzo Co., Ltd.), separating the resulting 386 bp DNA fragment by agarose gel electrophoresis, purifying the fragment, and labeling with [γ-^32P]-ATP and polynucleotide kinase. Also, as a substrate for 3′→5′ exonuclease activity detection, a DNA fragment labeled with ^32P at 3′-end was prepared by a process comprising digesting a pUC119 vector with Sau3AI, separating the resulting 341 bp DNA fragment by agarose gel electrophoresis, purifying the fragment, and carrying out a fill-in reaction using […] (manufactured by Amersham) and the Klenow fragment (manufactured by Takara Shuzo Co., Ltd.). […] The radioactivity existing in the supernatant was assayed using a liquid scintillation counter, and the amount of degradation by the exonuclease activity was calculated.
In the figure, the abscissa indicates the reaction time, and the ordinate indicates the ratio of radioactivity released into the supernatant relative to the radioactivity contained in the entire reaction mixture. […]

λ-DNA = details: reported, enzyme used alone; cited from earlier work
[5] = substrate M13-HT primer, activated DNA = 100
[6] = substrate M13-RNA primer, activated DNA = 100
[7] = substrate activated DNA (defined as 100)
[8] = substrate poly A-Oligo dT, activated DNA = 100
[9] = substrate poly dA-Oligo dT, activated DNA = 100
[10] = substrate thermal-denatured DNA, activated DNA = 100

| Substance | Relative Activity [1, 5] | Relative Activity [1, 6] | Relative Activity [1, 7] | Relative Activity [1, 8] | Relative Activity [1, 9] | Relative Activity [1, 10] | MgCl2 concentration of maximum activity (activated DNA [2]; in the absence of KCl) [mM] | KCl concentration of maximum activity (activated DNA [2]; in the presence of 2 mM MgCl2, 20 mM Tris-HCl pH 7.7) [mM] | MgCl2 concentration of maximum activity (activated DNA [2]; in the presence of 60 mM KCl) [mM] | pH of maximum activity (activated DNA [3]) | 3′→5′ exonuclease activity ([4]; 3′-end labeled 341 bp fragment) | 5′→3′ exonuclease activity ([4]; 5′-end labeled 386 bp fragment) | strand length of DNA amplifiable by PCR (λ-DNA) |
| --- | --- | --- | --- | --- | --- | --- | --- | --- | --- | --- | --- | --- | --- |
| DNA Polymerase of the Present Invention: complex of first (ORF3, SEQ ID NO:2) and second (ORF4, SEQ ID NO:4) DNA polymerase-constituting proteins from Pyrococcus furiosus | 170 | 52 | 100 | 0.085 | 94 | 340 | 17.5 | 60 | 10 | 8.02 | potent; also recorded: of the same level as that of the Pfu DNA polymerase | no 5′→3′exonuclease activity was observed |  |
| Taq DNA Polymerase: Taq DNA polymerase derived from Thermus aquaticus (TaKaRa Taq, manufactured by Takara Shuzo Co., Ltd.) [reference compound] | 90 | 38 | 100 | 0.063 | 290 | 130 |  |  |  |  |  |  | difficult to amplify a DNA fragment of not less than 10 kbp |
